B1: Fab ACI-7067-1108B11-Ab2 (Fab, V domains shown)
VH: EVQLVESGGGLVQPKGSLKLSCAASGFTFNTYAMHWVRQAPGKGLEWVARIRSKGSNYATNYADSVKDRFTISRDDSQSMLYLQMNNLKTEDTAMYYCVRGHGSSYFSYWGQGTLVTVSA
VL: QIVLTQSPAIMSASPGERITMTCSANSSVTYMHWYQQKSGTSPKRWIYDTSNLASGVPARFSGSGSGTSYSLTISSMEAEDAATYYCQQWKSHPPTFGAGTKLELK
B2: Fab ACI-7067-1113D10-Ab1 (Fab, V domains shown)
VH: EVQLVESGGGLVQPKGSLKLSCAASGFTFNTYALHWVRQAPGKGLEWVARIRSKSSNYATYYADSVKDRFTISRDDSQSMLYLQMNNLKTEDTGMYYCVRGGVSPFDYWGQGTTLTVSS
VL: QIVLTQSPAIMSASPGEKVTMTCSASSSVSYMHWYQQKSGTSPKRWIYDTSKLASGVPARFSGSGSGTSYSLTISSMEAEDSATYYCQQWSNNPPTFGGGTKLEIK
B3: Fab ACI-7067-1101C8-Ab2 (Fab, V domains shown)
VH: EVQLVESGGGLVQPKGSLKLSCAASGFSFNIYAMNWVRQAPGKGLEWVARIRSKSNNYATYYADSVKDRFTISRADSESMLYLQMNNLKTEDTAMYYCVRVGLRFYAMDYWGQGTSVTVSS
VL: DVLMTQTPLSLPVSLGDQASISCRSSQSIVHSNGNTYLEWYLQKPGQSPKLLIYKVSNRFSGVPDRFSGSGSGTDFTLKISRVEAEDLGVYYCFQGSQGPLTFGAGTKLELK
B4: Fab ACI-7067-1108H1-Ab1 (Fab, V domains shown)
VH: EVKLVESGGGLVQPGGSMKLSCTASGFTFSDAWMNWVRQSPEKGLEWVAEIRNKAHNHATNYAESVKGRFTISGDDSKSSVYLQMNNLRAEDTGIYYCTIYSFWGQGTLVTVSA
VL: SIVMTQTPKFLLVSAGDRVTITCKASQSVTNYVAWYHQKPGQSPKLLIYSASNRYSGVPDRFTGSGYGTDFTFTINTVQTEDLAVYFCQQDYRIPYTFGGGTKLEIK
B5: ACI-4F3_4317A4 (bispecific antibody, V domains shown)
VH 1: EVQLQQSGPELVKPGASVKISCKASGYTFTDYYMNWVKQSHGKSLEWIGDINPNTGTNSYNQKFKGRASLTVDKFSSAAYMELRSLTSEDSAVYYCARTGYGDPISSYYYALDYWGQGTSVTVSS
VL 1: DIVMSQSPSSLAVSAGEKVTMSCKSSQSLLNSRTRKNYLAWYQQKPGQSPKLLIYWASTRESGVPDRFTGSGSGTDFTLTISSVQAEDLAVYYCKQSYNLWTFGGGTKLEIK
VH 2: EVQLQQSGAELVRPGASVKLSCTASGFNIKDDYMHWVKQRPEQGLEWIGWIDPENGDTEYASKFQGKATMTADTSSNTAYLQLSSLTSEDTAVYYCKTWGTTQALFPYWGQGTLVTVSA
VL 2: DIVMTQSQKFMYTSVGDRVSITCKASQNVGNAVGWYQQKAGQSPKLLIHSASNRYTGVPDRFTGTGSGTDFTLTINNMQSEDLADYFCQQYRSYPLTFGAGTKLELK
notes: biparatopic; Arm A ACI-8033-4F3-Ab1, Arm B ACI-7088-4317A4-Ab1; engineered constant domains not specified
B6: ACI-5A12_3108C10 (bispecific antibody, V domains shown)
VH 1: QVHLKQSGADLVRPGASVKLSCKASGYTFTDYYINWVKQRPGQGLEWIARIYPGSGNTYYNEKFKGRATLSAEKSSTTAYMQLSSLTSEDSAVYFCVVGYYGAWGQGTTLTVSS
VL 1: DVVMTQTPLSLPVSLGDQASISCRSSQSLVHSNGKTHLHWYLQKPGQSPKLLIYKVSNRFSGVPDRFSGSGSGTDFTLKISRVEAEDLGVYFCSQSTHVPWTFGGGTKLEIK
VH 2: ELQLVESGGGLVRPGGSLKLSCATSGFTFRNYAMSWVRQTPAKRLEWVATISDGGTYTFYSDNVKGRFTISRDNVKNTLYLQMSHLKSEDTAMYYCSRAGSGHWGQGTTLTVSS
VL 2: not shown
notes: biparatopic; Arm A ACI-8033-5A12-Ab1, Arm B ACI-7079-3108C10-Ab2; engineered constant domains not specified
B7: ACI-1113D10_4317A4 (bispecific antibody, V domains shown)
VH 1: B2 VH
VL 1: B2 VL
VH 2: B5 VH 2
VL 2: B5 VL 2
notes: biparatopic; Arm A ACI-7067-1113D10-Ab1, Arm B ACI-7088-4317A4-Ab1; engineered constant domains not specified
B8: ACI-2503C6_1101C8 (bispecific antibody, V domains shown)
VH 1: DVQLQESGPGLVKPSQSLSLTCSVTGYSITSGYYWNWIRLFPGNKLEWLGYINYDGSNNFNPSLKNRISITRDTSKNQFFLKLNSVTSEDTATYFCLRGDWDWGQGTLVTVSA
VL 1: not shown
VH 2: B3 VH
VL 2: B3 VL
notes: biparatopic; Arm A ACI-7079-2503C6-Ab1, Arm B ACI-7067-1101C8-Ab2; engineered constant domains not specified
B9: ACI-1108B11_27D8 (bispecific antibody, V domains shown)
VH 1: B1 VH
VL 1: B1 VL
VH 2: EVQLVESGGGLVQPKGSLKLSCAASGFTFNTYAMNWVRQAPGKGLEWVARIRSKSNNFATYYADSVKDRFTISRDESESMLYLQMNNLKAEDTAMYYCVRSFDYWGQGTTLTVSS
VL 2: DIKMTQSPSSMYASLGERVTITCKASQDINSYLSWFQQKPGKSPKTLIYRAKRLVDGVPSRFSGSGSGQDYSLTISSLEYEDMGIYYCLQYDEFPFTFGSGTKLEIK
B10: ACI-4F3_5A12 (bispecific antibody, V domains shown)
VH 1: B5 VH 1
VL 1: B5 VL 1
VH 2: B6 VH 1
VL 2: B6 VL 1

The text below walks through data of US20250340623A1 (AC IMMUNE, published 2025).

For orientation: Kd means the equilibrium constant for the complex coming apart. A lower Kd goes with a tighter complex. As a reminder, the koff is a measure of how fast the partners let go of each other. A high value points to a short-lived complex. The kon is the rate constant with which the complex forms.

The first experiment concerns the target T1, alpha-synuclein seeds (UniProt P37840 1-140). The experiment can be described thus: cell-based or functional assay.
Turning to B1, the “aggregation half-time (τ1/2) of seeded alpha-synuclein aggregation, ThT; no antibody 18.0 hours” value (“aggregation half-time … no antibody 18.0 hours” for short) came to 22.3 h.

For the molecule B2, the “aggregation half-time … no antibody 18.0 hours” value was 21 h.

For B3, the “aggregation half-time … no antibody 18.0 hours” value amounted to 26.3 h.

Regarding B4, the “aggregation half-time … no antibody 18.0 hours” value worked out at 19.4 h.

The next experiment deals with T2, alpha-synuclein fibrils (UniProt P37840 1-140). The experiment can be described thus: SPR, captured bAb. The method, then:
(§1) Binding affinity of alpha-synuclein biparatopic antibodies to monomeric or fibrillar alpha-synuclein species was performed using a single-cycle kinetics method. The instrument was primed with 1×HBS-P+ buffer (10× stock from GE Healthcare, BR-1003-52 diluted in Milli-Q water). Injections of monomeric alpha-synuclein (Boston Biochem, SP-485), increasing in concentration from 0.62-50 nM prepared from serial 2-fold dilutions, were performed with contact times of 300 sec/injection at a flow rate of 30 μL/min. A dissociation phase of 900 sec followed the final 50 nM injection. Regeneration of the sensor to the goat anti-human antibody layer was achieved using 3 regenerations of 10 mM Glycine pH 1.7. […] Regeneration of the sensor to the goat anti-mouse antibody layer was achieved using 3 regenerations of 10 mM Glycine pH 1.7. Results obtained from single-cycle kinetics were evaluated by Biacore 8K evaluation software with 1:1 binding homogenous Langmuir model with a preceeding buffer injection as a blank subtraction. The following kinetic parameters were obtained: on-rate (ka), off-rate (kd), affinity constant (KD, ratio of kd by ka), maximum response (Rmax), and goodness of fit (Chi2).
(In SPR one partner is held on a chip, and binding of the other changes the refractive index at the surface.)
With B5, the “fold slower dissociation rate (Kd) from fibrillar than from monomeric alpha-synuclein” value (shortened to “fold slower dissociation rate (Kd)”) was at least 100 fold.

On to B6, for which the “fold slower dissociation rate (Kd)” value is at least 100 fold.

Take B7: the “fold slower dissociation rate (Kd)” value is at least 100 fold.

Consider B8, for which the “fold slower dissociation rate (Kd)” value was at least 100 fold.

The target of a further experiment is T3, monomeric alpha-synuclein (UniProt P37840 1-140). The experiment can be described thus: SPR, captured bAb; head says nM, kd/ka gives M. As for the experimental part:
(§2) Any non-covalently bound antibodies were removed by three successive regenerations of 10 mM Glycine pH 1.7 (GE Healthcare, 28-9950-84). Immobilization levels were evaluated following ethanolamine capping (Bound) and finally following regeneration (Final). Non-covalent immobilization of alpha-synuclein biparatopic antibodies on flow cell 2 of channels 1-8 was performed at a final concentration of 5 μg/mL, diluted in 10 mM sodium acetate pH 5.5 (GE Healthcare, BR-1003-52). Non-covalent immobilization of an isotype control antibody on flow cell 1 of channels 1-8 was performed at a final concentration of 5 μg/mL, diluted in 10 mM sodium acetate pH 5.5 (GE Healthcare, BR-1003-52).
as §1
(§3) Kinetic constants were determined from 1:1 homogenous binding models for all cases.
On to B5, for which the dissociation constant (Kd) turned out to be 1.17 nM.

As for B6, the Kd was 34.5 nM.

On to B7, for which the Kd was 0.416 nM.

Regarding B8, the affinity, expressed as Kd, was 1.14 nM.

Another experiment addresses T2, alpha-synuclein fibrils. The experiment can be described thus: SPR, captured bAb; head says nM, kd/ka gives M. As for the experimental part:
as §2, §1, §3
As for B5, the Kd came to 0.00152 nM.

B6: the dissociation constant (Kd) was determined as 8.21 nM.

On to B7, for which binding was put at a Kd of 0.00614 nM.

Consider B8, for which binding was characterised by a dissociation constant (Kd) of 0.00248 nM.

The target in a further experiment is T1, alpha-synuclein seeds. The experiment can be described thus: cell-based or functional assay. The source holds these as a separate data set.
For the molecule B9, the “IC50, percentage of de novo alpha-synuclein aggregates formed in cells after immunodepletion of seeds” value (from here on “IC50, percentage”) came out at 8.6 nM.

Turning to B6, the “IC50, percentage” value came out at 22.7 nM.

For the molecule B10, the “IC50, percentage” value was 15.2 nM.

For the next experiment, the target named is T3, monomeric alpha-synuclein. The experiment in a line: SPR, captured bAb. The method, then:
as §2, §1, §3
As to B5, the koff was 0.00103 s⁻¹ and the kon was determined as 884000 M⁻¹ s⁻¹.

For the molecule B6, the koff was over 1 s⁻¹ and the association rate constant (kon) was over 2.9e+07 M⁻¹ s⁻¹.

In the case of B7, the koff amounted to 0.000514 s⁻¹ and the kon amounted to 1.23e+06 M⁻¹ s⁻¹.

Molecule B8 came in with a koff of 0.00025 s⁻¹ and a kon of 220000 M⁻¹ s⁻¹.

Another experiment concerns the target T2, alpha-synuclein fibrils. The experiment in a line: SPR, captured bAb. The source holds these as a separate data set. The method, then:
as §2, §1, §3
In turn, B5 came in with a koff of 7.84e-08 s⁻¹ and a kon of 51700 M⁻¹ s⁻¹.

Take B6: the koff was found to be 9.19e-05 s⁻¹ and the kon is 11200 M⁻¹ s⁻¹.

On to B7, for which the koff stood at 3.48e-07 s⁻¹ and the on-rate (kon) was 56800 M⁻¹ s⁻¹.

B8 displayed a koff of 1.53e-07 s⁻¹ and a kon of 61600 M⁻¹ s⁻¹.
